The values that follow come from patent publication US20210163624A1 (Memorial Sloan Kettering, published 2021).

Assay [1] concerns the target T1, HLA-A0201 molecule on T2 cells alone (no peptide pulsed) (human).
T1 construct: No exogenous peptide; It is also the MHC partner in the T2 stabilization assay; also called T2 alone; HLA-A2 molecule
In words: flow cytometry, scFv phage on T2 cells without peptide.

Assay [2] addresses T2, RMF peptide (…)/HLA-A0201 complex on the cell surface (human).
T2 construct: Either on T2 cells pulsed with the synthetic peptide, or naturally processed and presented on WT1+ HLA-A0201+ tumour cells; The assay field of each row says which; also called WT1p/A2 complex; WT1/A2
In words: flow cytometry, scFv phage on T2 cells pulsed with WT1A peptide; scFv phage on T2 cells pulsed with WT1-A (RMF) peptide, 50 µg/ml. For orientation: A flow cytometer gives signals particle by particle.

Assay [3] addresses T3, RHAMM-R3 peptide/HLA-A0201 complex on T2 cells (human).
T3 construct: also called RHAMM-3; R3/HLAA0201
Put plainly: flow cytometry, scFv phage on T2 cells pulsed with RHAMM-3 peptide.

Assay [4] deals with T2, RMF peptide (…)/HLA-A0201 complex on …. Put plainly: flow cytometry, scFv phage on T2 cells pulsed with WT1A peptide.
Assay [5] deals with T1, HLA-A0201 molecule on T2 cells alone …. Put plainly: T2 stabilization assay, HLA-A2 detected with mAb BB7.
For assay [6], the target named is T3, RHAMM-R3 peptide/HLA-A0201 complex on …. Put plainly: phage ELISA on the recombinant R3/HLA-A0201 complex (R3), not on cells. Background: An ELISA detects its analyte on a solid surface through an enzyme-linked reagent.
Assay [7] deals with T4, Biotinylated single chain WT1 peptide/HLA-A0201 complex (recombinant, refolded) (human, biotinylated (site not stated)).
T4 construct: also called WT1/A2; HLA-A0201/WT1 peptide complex
In words: kinetic binding analysis, sensorgram in nm against time (sec) with fit; column kD [M].

For assay [8], the target named is T4, Biotinylated single chain WT1 …. In words: kinetic binding analysis, sensorgram in nm against time (sec) with fit; column ka [1/Ms].
Assay [9] has the same target. Put plainly: kinetic binding analysis, sensorgram in nm against time (sec) with fit; column kd [1/s]; Error in kd 2.25E-5.
Assay [10] addresses T5, EW peptide/HLA-A0201 complex on T2 cells (human).
T5 construct: also called Ewing sarcoma-derived peptide
Put plainly: flow cytometry on T2 cells pulsed with EW peptide.

Assay [11] concerns the target T6, WT1-A1 heteroclitic peptide (tyrosine at position 1 of RMF)/HLA-A0201 complex on T2 cells (human). In words: flow cytometry, T2 cells pulsed with WT1-A1 peptide.
Assay [12] has as its target WT1A1-B peptide (…)/HLA-A0201 complex on T2 cells (human). In words: flow cytometry, T2 cells pulsed with WT1-A1-B peptide.
Assay [13] deals with T1, HLA-A0201 molecule on T2 cells alone …. In words: flow cytometry, T2 cells without peptide (0 µg/ml point).
In assay [14] the target is T3, RHAMM-R3 peptide/HLA-A0201 complex on …. In words: flow cytometry, T2 cells pulsed overnight with graded RHAMM-R3 peptide.
Assay [15] has as its target T2, RMF peptide (…)/HLA-A0201 complex on …. Put plainly: radioimmunoassay with 125-I-labeled WT1 ab1 on JMN cells, Scatchard analysis (bivalent IgG1, avidity).
For assay [16], the target named is T1, HLA-A0201 molecule on T2 cells alone …. Put plainly: flow cytometry, live T2 cells without peptide (0 µg/ml group).
Assay [17] concerns the target T6, WT1-A1 heteroclitic peptide (tyrosine …). In words: flow cytometry, live T2 cells pulsed with graded WT1-A1 peptide.
Assay [18] has as its target T3, RHAMM-R3 peptide/HLA-A0201 complex on …. In words: flow cytometry, live T2 cells pulsed with graded RHAMM-R3 peptide.
Assay [19] deals with T4, Biotinylated single chain WT1 …. Put plainly: kinetic binding analysis, sensorgram in nm against time (sec) with fit; column kd [1/s]; Error in kd 1.12E-4.

By kon is commonly meant the second-order rate constant of association. The koff is a measure of how fast the partners let go of each other.

B1: scFv phage clone 15 (scFv)
scFv: DIQMTQSPSTLSASVGDRVTITCRASQNINKWLAWYQQRPGKAPQLLIYKASSLESGVPSRFSGSGSGTEYTLTISSLQPDDFATYYCQQYNSYATFGQGTKVEIKRSRGGGGSGGGGSGGGGSLEMAQVQLVQSGAEVKKPGESLKISCKGSGYNFSNKWIGWVRQLPGRGLEWIAIIYPGYSDITYSPSFQGRVTISADTSINTAYLHWHSLKASDTAMYYCVRHTALAGFDYWGLGTLVTVSS
notes: also called Ext002 #15
On to B1, for which the binding result in [1] is listed as “no binding”; in assay [2], “binds”.

B2: scFv phage clone 3 (scFv)
scFv: QTVVTQPPSASGTPGQRVTISCSGSSSNIGSNYVYWYQQLPGTAPKLLIYRSNQRPSGVPDRFSGSKSGTSASLAISGPRSVDEADYYCAAWDDSLNGVVFGGGTKLTVLGSRGGGGSGGGGSGGGSLEMAQVQLVQSGAEVKKPGSSVKVSCKASGGTFSSYAISWVRQAPGQGLEWMGGIIPIFGTANYAQKFQGRVTITADESTSTAYMELSSLRSEDTAVYYCARRIPPYYGMDVWGQGTTVTVSS
notes: also called Ext002 #3; EXT002-3
On to B2, for which the figures for the binding result in assay [1], in assay [3] and in [4] were “no binding”, “no binding” and “binds”, respectively.

B3: WT1A1-B peptide (AMFPNAPYL) (peptide)
peptide: AMFPNAPYL
With B3, in assay [5], the binding result is “binds”.

B4: WT1-A1 heteroclitic peptide (tyrosine at position 1 of RMF) (peptide)
peptide: YMFPNAPYL
Regarding B4, the binding result in assay [5] is on record as “binds”.

B5: scFv phage clone 23 (scFv)
scFv: QSVLTQPPSVSGAPGQRVTISCTGSSSNIGAGYDVHWYQQLPGTAPKLLIYGNSNRPSGVPDRFSGSKSGTSASLAISGLQSEDEADYYCAAWDDSLNGYVFGTGTKLTVLGSRGGGGSGGGGSGGGGSLEMAEVQLVETGGGLLQPGGSLRLSCAASGFSVSGTYMGWVRQAPGKGLEWVALLYSGGGTYHPASLQGRFIVSRDSSKNMVYLQMNSLKAEDTAVYYCAKGGAGGGHFDSWGQGTLVTVSS
notes: also called Ext002 #23; EXT002-23
Turning to B5, the binding result in assay [1] is reported as “no binding”; in assay [6], “no binding”; in assay [2], “binds”.

B6: mAb 15 (mAb clone 15) (antibody, V domains shown)
VH: QVQLVQSGAEVKKPGESLKISCKGSGYNFSNKWIGWVRQLPGRGLEWIAIIYPGYSDITYSPSFQGRVTISADTSINTAYLHWHSLKASDTAMYYCVRHTALAGFDYWGLGTLVTVSS
VL: DIQMTQSPSTLSASVGDRVTITCRASQNINKWLAWYQQRPGKAPQLLIYKASSLESGVPSRFSGSGSGTEYTLTISSLQPDDFATYYCQQYNSYATFGQGTKVEIKR
notes: The legends call it mAb 15 or clone 15; also called Ext002 #15
Take B6: in assay [7], the Kd is 7.68 nM. Further, the kon in assay [8] was 245000 M⁻¹ s⁻¹. Moreover, the koff in [9] was found to be 0.00188 s⁻¹.

B7: WT1 ab1, full-length human IgG1 (antibody, V domains shown)
VH: QMQLVQSGAEVKEPGESLRISCKGSGYSFTNFWISWVRQMPGKGLEWMGRVDPGYSYSTYSPSFQGHVTISADKSTSTAYLQWNSLKASDTAMYYCARVQYSGYYDWFDPWGQGTLVTVSS
VL: not shown
notes: No single sentence says that WT1 ab1 is clone #13; also called Mab WT1 ab1; ESK1
Turning to B7, the binding result in [10] was “no binding”; in [11], “no binding (tested: mAb concentration not on the sheet)”; in [12], “no binding (tested: mAb concentration not on the sheet)”; in [13], “no binding (tested: mAb 1 µg/ml)”; in assay [14], “no binding (tested: mAb 1 µg/ml; peptide 50 µg/ml)”. For the same molecule, the Kd in assay [15] is about 0.2 nM.

B8: mAb 5 (mAb clone 5) (antibody, V domains shown)
VH: QVQLQQSGPGLVKPSQTLSLTCAISGDSVSSNSAAWNWIRQSPSRGLEWLGRTYYGSKWYNDYAVSVKSRITINPDTSKNQFSLQLNSVTPEDTAVYYCARGRLGDAFDIWGQGTMVTVSS
VL: not shown
notes: The legends call it mAb 5 or mAb clone 5; also called Ext002 #5
As to B8, the binding result is “no binding (tested: mAb concentration not on the sheet)” in [16], “no binding” in [17] and “no binding” in assay [18]. Moreover, the Kd in assay [7] turned out to be 11.7 nM. The on-rate (kon) in assay [8] was found to be 468000 M⁻¹ s⁻¹. Further, the koff in [19] was found to be 0.00548 s⁻¹.

B9: scFv phage clone 18 (scFv)
scFv: QSVVTQPPSVSVAPGKTARITCGRNNIGSKSVHWYQQKPGQAPVLVVYDDSDRPSGIPERFSGSNSGNTATLTISRVEAGDEADYYCQVWDSSSDHVVFGGGTKLTVLGSRGGGGSGGGGSGGSLEMAEVQLVQSGGGVVRPGGSLRLSCAASGFTFDDYGMSWVRQAPGKGLEWVSGINWNGGSTGYADSVRGRFTISRDNAKNSLYLQMNSLRAEDTALYYCARERGYGYHDPHDYWGQGTLVTVSS
notes: also called Ext002 #18
As to B9, the figures for the binding result in [1], in [3] and in [2] were “no binding”, “no binding” and “binds”, respectively.
